Test results taken from paper PMC7916210, “Identification of Novel phoP-phoQ Regulated Genes that Contribute to Polymyxin B Tolerance in Pseudomonas aeruginosa”.

Biological target: PhoP-His (UniProt A0A0H2Z7U0 1-225)
Experiment: EMSA; PhoP 0, 2, 4 or 8 uM
Conditions: protein: recombinant; tags: C-terminal 6xHis; chain copies: 2; blunt

| Binder | binding result |
| --- | --- |
| PPA14_46900 promoter probe (dsDNA) DNA 1: GGTTCGTTCAGAAATTGTTCAGGCTTCGTTCAGGCCCGATTCAGGCCGGGTTCAGCAGAA DNA 2: TTCTGCTGAACCCGGCCTGAATCGGGCCTGAACGAAGCCTGAACAATTTCTGAACGAACC | binds |
| PPA14_50740 promoter probe (dsDNA) DNA 1: AATCGATTCAGCAATGGTACAGGTTCGTTCAGTTTCGACCGAACCCTCCCGCTTTCATCG DNA 2: CGATGAAAGCGGGAGGGTTCGGTCGAAACTGAACGAACCTGTACCATTGCTGAATCGATT | binds |
| PPA14_11970 promoter probe (dsDNA) DNA 1: TGTCTTTGTAACAGGAAATCCTCGATGTTCAGTCCGAAACCGAGCTGCGCGCCCCAGTTG DNA 2: CAACTGGGGCGCGCAGCTCGGTTTCGGACTGAACATCGAGGATTTCCTGTTACAAAGACA | binds |
| PPA14_52350 promoter probe (dsDNA) DNA 1: CATTTGCTGGTGTTCGTTCAGCGATGGTTCAGCTTGCCGTGGGCATAGTGGCGGCTTGCA DNA 2: TGCAAGCCGCCACTATGCCCACGGCAAGCTGAACCATCGCTGAACGAACACCAGCAAATG | binds |
